Tests used:
[1] = biological target: polarity-marked microtubules (polymerised alpha-beta tubulin) (porcine) (UniProt P02554); assay: single molecule fluorescence motility assay; Cin8-3GFP variants in whole cell extract on polarity-marked Taxol MTs; MB-80 (MB with 80 mM NaCl, IS = 0.222), 4 mM ATP; 90 s recordings, 1 s frames
[2] = biological target: polarity-marked microtubules (polymerised alpha-beta tubulin) (porcine) (UniProt P02554); assay: single molecule fluorescence motility assay; Cin8-3GFP variants in whole cell extract on polarity-marked Taxol MTs; MB-30 (MB with 30 mM NaCl, IS = 0.172), 4 mM ATP; 90 s recordings, 1 s frames
[3] = biological target: polarity-marked microtubules (polymerised alpha-beta tubulin) (porcine) (UniProt P02554); assay: single molecule fluorescence motility assay; purified Cin8-3GFP-6His variants on polarity-marked Taxol MTs; MB-135 (MB with 135 mM NaCl, IS = 0.277), 4 mM ATP; 90 s recordings
[4] = biological target: polarity-marked microtubules (polymerised alpha-beta tubulin) (porcine) (UniProt P02554); assay: single molecule fluorescence motility assay; purified Cin8-3GFP-6His variants on polarity-marked Taxol MTs; MB-45 (MB with 45 mM NaCl, IS = 0.187), 4 mM ATP; 90 s recordings
[5] = biological target: polarity-marked microtubules (polymerised alpha-beta tubulin) (porcine) (UniProt P02554); assay: single molecule fluorescence motility assay; purified Cin8-3GFP-6His variants on polarity-marked Taxol MTs; MB-90 (MB with 90 mM NaCl, IS = 0.232), 4 mM ATP; 90 s recordings

% of moving molecules with interaction times longer than 90 s [1] [%] | % of moving molecules with interaction times longer than 90 s [2] [%] | % of moving molecules with interaction times longer than 90 s [3] [%] | % of moving molecules with interaction times longer than 90 s [4] [%] | % of moving molecules with interaction times longer than 90 s [5] [%] | Substance
21 | 75 |  |  |  | wild type Cin8-3GFP (whole cell extract, strain LGY 2055) (from UniProt P27895 1-1000) (natural protein)
 |  | 14 | 71 | 53 | purified wild type Cin8-3GFP-6His (plasmid pOS2) (from UniProt P27895 1-1000) (natural protein)

From publication PMC4877575
